In the supplement of paper PMC5998384:

Legend:
HeLa Kyoto [1] = assay: solubility change mitosis vs G1/S (difference of NP-40 vs SDS log2 ratios) (log2 ratio difference); higher = more soluble in mitosis
HeLa Kyoto [2] = assay: melting temperature (median over replicates), in situ; higher = more thermally stable
HeLa Kyoto [3] = assay: thermal stability score vs G1/S (z-score of summed log2 fold changes over temperatures); higher = more thermally stable than in G1/S
HeLa Kyoto [4] = assay: solubility in G1/S (NP-40 vs SDS abundance) (log2 ratio); higher = more soluble; conditions: cell cycle stage: G1/S
[5] = cell cycle stage: early G1 (4.5 h after nocodazole release)
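Throughout, for melting temperature (median over replicates), in situ: HeLa Kyoto cells synchronized by double thymidine or nocodazole block, proteins quantified by TMT10plex mass spectrometry, three independent biological replicates.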
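Throughout, for solubility change mitosis vs G1/S (difference of NP-40 vs SDS log2 ratios): synchronized HeLa Kyoto cells (double thymidine block for G1/S, nocodazole release for mitosis), protein amounts in NP-40 versus SDS lysates quantified by mass spectrometry, three biological replicates.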
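Throughout, for solubility in G1/S (NP-40 vs SDS abundance): HeLa Kyoto cells arrested at G1/S by double thymidine block, proteins quantified by TMT10plex mass spectrometry in mild NP-40 versus SDS extracts, three biological replicates.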
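Throughout, for thermal stability score vs G1/S (z-score of summed log2 fold changes over temperatures): synchronized HeLa Kyoto cells, proteins quantified by TMT10plex mass spectrometry, three biological replicates, mitosis taken 0.5 h after nocodazole release, G1/S directly after double thymidine block.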

MPYEIKKVFASLPQVERGVSKIIGGDPKGNNFLYTNGKCVILRNIDNPALADIYTEHAHQVVVAKYAPSGFYIASGDVSGKLRIWDTTQKEHLLKYEYQPFAGKIKDIAWTEDSKRIAVVGEGREKFGAVFLWDSGSSVGEITGHNKVINSVDIKQSRPYRLATGSDDNCAAFFEGPPFKFKFTIGDHSRFVNCVRFSPDGNRFATASADGQIYIYDGKTGEKVCALGGSKAHDGGIYAISWSPDSTHLLSASGDKTSKIWDVSVNSVVSTFPMGSTVLDQQLGCLWQKDHLLSVSLSGYINYLDRNNPSKPLHVIKGHSKSIQCLTVHKNGGKSYIYSGSHDGHINYWDSETGENDSFAGKGHTNQVSRMTVDESGQLISCSMDDTVRYTSLMLRDYSGQGVVKLDVQPKCVAVGPGGYAVVVCIGQIVLLKDQRKCFSIDNPGYEPEVVAVHPGGDTVAIGGVDGNVRLYSILGTTLKDEGKLLEAKGPVTDVAYSHDGAFLAVCDASKVVTVFSVADGYSENNVFYGHHAKIVCLAWSPDNEHFASGGMDMMVYVWTLSDPETRVKIQDAHRLHHVSSLAWLDEHTLVTTSHDASVKEWTITY [WDR1]
solubility change mitosis (log2) (HeLa Kyoto [1]): -0.128
melting temperature (HeLa Kyoto [2]; cell cycle stage: G1/S): 53.7 °C
melting temperature (HeLa Kyoto [2]; cell cycle stage: mitosis): 52.3 °C
thermal stability score (HeLa Kyoto [3]; [5]): -0.713
thermal stability score (HeLa Kyoto [3]; cell cycle stage: mitosis): -2.84
solubility in G1/S (log2) (HeLa Kyoto [4]): -0.153

MPYLGSEDVVKELKKALCNPHIQADRLRYRNVIQRVIRYMTQGLDMSGVFMEMVKASATVDIVQKKLVYLYMCTYAPLKPDLALLAINTLCKDCSDPNPMVRGLALRSMCSLRMPGVQEYIQQPILNGLRDKASYVRRVAVLGCAKMHNLHGDSEVDGALVNELYSLLRDQDPIVVVNCLRSLEEILKQEGGVVINKPIAHHLLNRMSKLDQWGQAEVLNFLLRYQPRSEEELFDILNLLDSFLKSSSPGVVMGATKLFLILAKMFPHVQTDVLVRVKGPLLAACSSESRELCFVALCHVRQILHSLPGHFSSHYKKFFCSYSEPHYIKLQKVEVLCELVNDENVQQVLEELRGYCTDVSADFAQAAIFAIGGIARTYTDQCVQILTELLGLRQEHITTVVVQTFRDLVWLCPQCTEAVCQALPGCEENIQDSEGKQALIWLLGVHGERIPNAPYVLEDFVENVKSETFPAVKMELLTALLRLFLSRPAECQDMLGRLLYYCIEEEKDMAVRDRGLFYYRLLLVGIDEVKRILCSPKSDPTLGLLEDPAERPVNSWASDFNTLVPVYGKAHWATISKCQGAERCDPELPKTSSFAASGPLIPEENKERVQELPDSGALMLVPNRQLTADYFEKTWLSLKVAHQQVLPWRGEFHPDTLQMALQVVNIQTIAMSRAGSRPWKAYLSAQDDTGCLFLTELLLEPGNSEMQISVKQNEARTETLNSFISVLETVIGTIEEIKS [AP4B1]
solubility change mitosis (log2) (HeLa Kyoto [1]): -0.136
melting temperature (HeLa Kyoto [2]; cell cycle stage: G1/S): 49.3 °C
melting temperature (HeLa Kyoto [2]; cell cycle stage: mitosis): 49.7 °C
thermal stability score (HeLa Kyoto [3]; [5]): -0.012
thermal stability score (HeLa Kyoto [3]; cell cycle stage: mitosis): 0.298
solubility in G1/S (log2) (HeLa Kyoto [4]): -0.123

MQDDSIEASTSISQLLRESYLAETRHRGNNERSRAEPSSNPCHFGSPSGAAEGGGGQDDLPDLSAFLSQEELDESVNLARLAINYDPLEKADETQARKRLSPDQMKHSPNLSFEPNFCQDNPRSPTSSKESPQEAKRPQYCSETQSKKVFLNKAADFIEELSSLFKSHSSKRIRPRACKNHKSKLESQNKVMQENSSSFSDLSERRERSSVPIPIPADTRDNEVNHALEQQEAKRREAEQAASEAAGGDTTPGSSPSSLYYEEPLGQPPRFTQKLRSREVPEGTRVQLDCIVVGIPPPQVRWYCEGKELENSPDIHIVQAGNLHSLTIAEAFEEDTGRYSCFASNIYGTDSTSAEIYIEGVSSSDSEGDPNKEEMNRIQKPNEVSSPPTTSAVIPPAVPQAQHLVAQPRVATIQQCQSPTNYLQGLDGKPIIAAPVFTKMLQNLSASEGQLVVFECRVKGAPSPKVEWYREGTLIEDSPDFRILQKKPRSMAEPEEICTLVIAEVFAEDSGCFTCTASNKYGTVSSIAQLHVRGNEDLSNNGSLHSANSTTNLAAIEPQPSPPHSEPPSVEQPPKPKLEGVLVNHNEPRSSSRIGLRVHFNLPEDDKGSEASSEAGVVTTRQTRPDSFQERFNGQATKTPEPSSPVKEPPPVLAKPKLDSTQLQQLHNQVLLEQHQLQNPPPSSPKEFPFSMTVLNSNAPPAVTTSSKQVKAPSSQTFSLARPKYFFPSTNTTAATVAPSSSPVFTLSSTPQTIQRTVSKESLLVSHPSVQTKSPGGLSIQNEPLPPGPTEPTPPPFTFSIPSGNQFQPRCVSPIPVSPTSRIQNPVAFLSSVLPSLPAIPPTNAMGLPRSAPSMPSQGLAKKNTKSPQPVNDDNIRETKNAVIRDLGKKITFSDVRPNQQEYKISSFEQRLMNEIEFRLERTPVDESDDEIQHDEIPTGKCIAPIFDKRLKHFRVTEGSPVTFTCKIVGIPVPKVYWFKDGKQISKRNEHCKMRREGDGTCSLHIESTTSDDDGNYTIMAANPQGRISCSGHLMVQSLPIRSRLTSAGQSHRGRSRVQERDKEPLQERFFRPHFLQAPGDMVAHEGRLCRLDCKVSGLPPPELTWLLNGQPVLPDASHKMLVRETGVHSLLIDPLTQRDAGTYKCIATNKTGQNSFSLELSVVAKEVKKAPVILEKLQNCGVPEGHPVRLECRVIGMPPPVFYWKKDNETIPCTRERISMHQDTTGYACLLIQPAKKSDAGWYTLSAKNEAGIVSCTARLDIYAQWHHQIPPPMSVRPSGSRYGSLTSKGLDIFSAFSSMESTMVYSCSSRSVVESDEL [MYPN]
solubility change mitosis (log2) (HeLa Kyoto [1]): -0.108
melting temperature (HeLa Kyoto [2]; cell cycle stage: G1/S): 47.6 °C
melting temperature (HeLa Kyoto [2]; cell cycle stage: mitosis): 48.9 °C
thermal stability score (HeLa Kyoto [3]; [5]): -0.0918
thermal stability score (HeLa Kyoto [3]; cell cycle stage: mitosis): 3.44
solubility in G1/S (log2) (HeLa Kyoto [4]): 0.0329

MQGSSLWLSLTFRSARVLSRARFFEWQSPGLPNTAAMENGTGPYGEERPREVQETTVTEGAAKIAFPSANEVFYNPVQEFNRDLTCAVITEFARIQLGAKGIQIKVPGEKDTQKVVVDLSEQEEEKVELKESENLASGDQPRTAAVGEICEEGLHVLEGLAASGLRSIRFALEVPGLRSVVANDASTRAVDLIRRNVQLNDVAHLVQPSQADARMLMYQHQRVSERFDVIDLDPYGSPATFLDAAVQAVSEGGLLCVTCTDMAVLAGNSGETCYSKYGAMALKSRACHEMALRIVLHSLDLRANCYQRFVVPLLSISADFYVRVFVRVFTGQAKVKASASKQALVFQCVGCGAFHLQRLGKASGVPSGRAKFSAACGPPVTPECEHCGQRHQLGGPMWAEPIHDLDFVGRVLEAVSANPGRFHTSERIRGVLSVITEELPDVPLYYTLDQLSSTIHCNTPSLLQLRSALLHADFRVSLSHACKNAVKTDAPASALWDIMRCWEKECPVKRERLSETSPAFRILSVEPRLQANFTIREDANPSSRQRGLKRFQANPEANWGPRPRARPGGKAADEAMEERRRLLQNKRKEPPEDVAQRAARLKTFPCKRFKEGTCQRGDQCCYSHSPPTPRVSADAAPDCPETSNQTPPGPGAAAGPGID [TRMT1]
solubility change mitosis (log2) (HeLa Kyoto [1]): -0.0538
melting temperature (HeLa Kyoto [2]; cell cycle stage: G1/S): 56.3 °C
melting temperature (HeLa Kyoto [2]; cell cycle stage: mitosis): 56.7 °C
thermal stability score (HeLa Kyoto [3]; [5]): -0.711
thermal stability score (HeLa Kyoto [3]; cell cycle stage: mitosis): -1.01
solubility in G1/S (log2) (HeLa Kyoto [4]): -0.0405

MQLRNPELHLGCALALRFLALVSWDIPGARALDNGLARTPTMGWLHWERFMCNLDCQEEPDSCISEKLFMEMAELMVSEGWKDAGYEYLCIDDCWMAPQRDSEGRLQADPQRFPHGIRQLANYVHSKGLKLGIYADVGNKTCAGFPGSFGYYDIDAQTFADWGVDLLKFDGCYCDSLENLADGYKHMSLALNRTGRSIVYSCEWPLYMWPFQKPNYTEIRQYCNHWRNFADIDDSWKSIKSILDWTSFNQERIVDVAGPGGWNDPDMLVIGNFGLSWNQQVTQMALWAIMAAPLFMSNDLRHISPQAKALLQDKDVIAINQDPLGKQGYQLRQGDNFEVWERPLSGLAWAVAMINRQEIGGPRSYTIAVASLGKGVACNPACFITQLLPVKRKLGFYEWTSRLRSHINPTGTVLLQLENTMQMSLKDLL
solubility change mitosis (log2) (HeLa Kyoto [1]): -0.105
melting temperature (HeLa Kyoto [2]; cell cycle stage: G1/S): 55.1 °C
melting temperature (HeLa Kyoto [2]; cell cycle stage: mitosis): 56.7 °C
thermal stability score (HeLa Kyoto [3]; [5]): -3.45
thermal stability score (HeLa Kyoto [3]; cell cycle stage: mitosis): -2.97
solubility in G1/S (log2) (HeLa Kyoto [4]): 0.24

MQLTVKALQGRECSLQVPEDELVSTLKQLVSEKLNVPVRQQRLLFKGKALADGKRLSDYSIGPNSKLNLVVKPLEKVLLEEGEAQRLADSPPPQVWQLISKVLARHFSAADASRVLEQLQRDYERSLSRLTLDDIERLASRFLHPEVTETMEKGFSK [UBL4A]
solubility change mitosis (log2) (HeLa Kyoto [1]): 0.277
melting temperature (HeLa Kyoto [2]; cell cycle stage: G1/S): 51.4 °C
melting temperature (HeLa Kyoto [2]; cell cycle stage: mitosis): 51.7 °C
thermal stability score (HeLa Kyoto [3]; [5]): 0.0718
thermal stability score (HeLa Kyoto [3]; cell cycle stage: mitosis): 0.136
solubility in G1/S (log2) (HeLa Kyoto [4]): 0.557

MQMSYAIRCAFYQLLLAALMLVAMLQLLYLSLLSGLHGQEEQDQYFEFFPPSPRSVDQVKAQLRTALASGGVLDASGDYRVYRGLLKTTMDPNDVILATHASVDNLLHLSGLLERWEGPLSVSVFAATKEEAQLATVLAYALSSHCPDMRARVAMHLVCPSRYEAAVPDPREPGEFALLRSCQEVFDKLARVAQPGINYALGTNVSYPNNLLRNLAREGANYALVIDVDMVPSEGLWRGLREMLDQSNQWGGTALVVPAFEIRRARRMPMNKNELVQLYQVGEVRPFYYGLCTPCQAPTNYSRWVNLPEESLLRPAYVVPWQDPWEPFYVAGGKVPTFDERFRQYGFNRISQACELHVAGFDFEVLNEGFLVHKGFKEALKFHPQKEAENQHNKILYRQFKQELKAKYPNSPRRC [B4GAT1]
solubility change mitosis (log2) (HeLa Kyoto [1]): 0.00523
melting temperature (HeLa Kyoto [2]; cell cycle stage: G1/S): 53.7 °C
melting temperature (HeLa Kyoto [2]; cell cycle stage: mitosis): 54.1 °C
thermal stability score (HeLa Kyoto [3]; [5]): 0.621
thermal stability score (HeLa Kyoto [3]; cell cycle stage: mitosis): 0.329
solubility in G1/S (log2) (HeLa Kyoto [4]): 0.284

MQMVPSLPPASECAGEEKRVGTRTVFVGNHPVSETEAYIAQRFCDNRIVSSKYTLWNFLPKNLFEQFRRIANFYFLIIFLVQVTVDTPTSPVTSGLPLFFVITVTAIKQGYEDCLRHRADNEVNKSTVYIIENAKRVRKESEKIKVGDVVEVQADETFPCDLILLSSCTTDGTCYVTTASLDGESNCKTHYAVRDTIALCTAESIDTLRAAIECEQPQPDLYKFVGRINIYSNSLEAVARSLGPENLLLKGATLKNTEKIYGVAVYTGMETKMALNYQGKSQKRSAVEKSINAFLIVYLFILLTKAAVCTTLKYVWQSTPYNDEPWYNQKTQKERETLKVLKMFTDFLSFMVLFNFIIPVSMYVTVEMQKFLGSFFISWDKDFYDEEINEGALVNTSDLNEELGQVDYVFTDKTGTLTENSMEFIECCIDGHKYKGVTQEVDGLSQTDGTLTYFDKVDKNREELFLRALCLCHTVEIKTNDAVDGATESAELTYISSSPDEIALVKGAKRYGFTFLGNRNGYMRVENQRKEIEEYELLHTLNFDAVRRRMSVIVKTQEGDILLFCKGADSAVFPRVQNHEIELTKVHVERNAMDGYRTLCVAFKEIAPDDYERINRQLIEAKMALQDREEKMEKVFDDIETNMNLIGATAVEDKLQDQAAETIEALHAAGLKVWVLTGDKMETAKSTCYACRLFQTNTELLELTTKTIEESERKEDRLHELLIEYRKKLLHEFPKSTRSFKKAWTEHQEYGLIIDGSTLSLILNSSQDSSSNNYKSIFLQICMKCTAVLCCRMAPLQKAQIVRMVKNLKGSPITLSIGDGANDVSMILESHVGIGIKGKEGRQAARNSDYSVPKFKHLKKLLLAHGHLYYVRIAHLVQYFFYKNLCFILPQFLYQFFCGFSQQPLYDAAYLTMYNICFTSLPILAYSLLEQHINIDTLTSDPRLYMKISGNAMLQLGPFLYWTFLAAFEGTVFFFGTYFLFQTASLEENGKVYGNWTFGTIVFTVLVFTVTLKLALDTRFWTWINHFVIWGSLAFYVFFSFFWGGIIWPFLKQQRMYFVFAQMLSSVSTWLAIILLIFISLFPEILLIVLKNVRRRSARRNLSCRRASDSLSARPSVRPLLLRTFSDESNVL [ATP11C]
solubility change mitosis (log2) (HeLa Kyoto [1]): -0.202
melting temperature (HeLa Kyoto [2]; cell cycle stage: G1/S): 55.2 °C
melting temperature (HeLa Kyoto [2]; cell cycle stage: mitosis): 55 °C
thermal stability score (HeLa Kyoto [3]; [5]): -0.694
thermal stability score (HeLa Kyoto [3]; cell cycle stage: mitosis): -1.66
solubility in G1/S (log2) (HeLa Kyoto [4]): -0.156
